The series concerns the molecule itself. The series is described as follows: negative-stain electron microscopy; 12 ng/ul His-PHGDH or 15 ng/ul untagged PHGDH with 0.5 mM NADH, 2% uranyl acetate; reference-free alignment, class averages, particle areas compared.

B1: recombinant untagged PHGDH (D-3-phosphoglycerate dehydrogenase) (enzyme, human, UniProt O43175 1-533, looked up)
chain: MAFANLRKVLISDSLDPCCRKILQDGGLQVVEKQNLSKEELIAELQDCEGLIVRSATKVTADVINAAEKLQVVGRAGTGVDNVDLEAATRKGILVMNTPNGNSLSAAELTCGMIMCLARQIPQATASMKDGKWERKKFMGTELNGKTLGILGLGRIGREVATRMQSFGMKTIGYDPIISPEVSASFGVQQLPLEEIWPLCDFITVHTPLLPSTTGLLNDNTFAQCKKGVRVVNCARGGIVDEGALLRALQSGQCAGAALDVFTEEPPRDRALVDHENVISCPHLGASTKEAQSRCGEEIAVQFVDMVKGKSLTGVVNAQALTSAFSPHTKPWIGLAEALGTLMRAWAGSPKGTIQVITQGTSLKNAGNCLSPAVIVGLLKEASKQADVNLVNAKLLVKEAGLNVTTSHSPAAPGEQGFGECLLAVALAGAPYQAVGLVQGTTPVLQGLNGAVFRPEVPLRRDLPLLLFRTQTSDPAMLPTMIGLLAEAGVRLLSYQTSLVSDGETWHVMGISSLLPSLEAWKQHVTEAFQFHF
notes: D-3-phosphoglycerate dehydrogenase (PHGDH), human, expressed from pET28a PHGDH without a tag; Oligomer size is left open (dimer, trimer, or tetramer); also called rPHGDH; source: E. coli BL21, purified (Cibacron Blue F3GA, MonoQ, Sephacryl S-200)
B1: the binding result is reported as “binds”.
